Laboratory results reported in the supplement of paper PMC12764529.

Test: folding stability dG unfold (combined trypsin and chymotrypsin); higher = more stable
Description: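 Folding stability of de novo designed mini-proteins (<80 aa, no Cys; designed by TrROS, TrMRF, ProteinMPNN and the joint model) was measured by cDNA display proteolysis with trypsin and chymotrypsin. Each protease was used at 11 concentrations in a threefold dilution series plus a no-protease condition. K50 was inferred by Bayesian fitting of sequencing counts, and dG unfold was derived against a sequence-predicted unfolded-state K50 (Tsuboyama et al. method). Sequences shown include variable-length N-terminal GS-type padding (SAGGSAGG...) inside a display construct carrying a PA tag. Rows were kept only if the AF2 dimer inter-PAE was >15, to exclude likely homo-oligomers.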

## SAGGSAGGSAGGSPAFVAPSPDAYLSADPVTGEWEPVPADHVVLSVDPSNGRVTISDPLSAGGSAGGSAGGS [r4_127_TrMRF]
  folding stability dG unfold: < -4.18 kJ/mol

## SAGGSAGGSAGGKRRKITIPFKMPDGRWHPIRANMSEEQLEDIVEHHPFFKPAIKKALKKSAGGSAGGSAGG [r7_637_TrROS]
  folding stability dG unfold: < -4.18 kJ/mol

## SAGGSAGGSGDKSPPLVPTVTLKTTDPDAVEKAVKAAGVAVTRYPGKGYYTFRKADVEKILKSSAGGSAGGS [r12_325_TrMRF]
  folding stability dG unfold: < -4.18 kJ/mol

## SAGGSAGGSAGSPAAERIAKYMEKQGGDNIDIEPVGPRPGYVRIKMKNNRPITIPLKEGDSAGGSAGGSAGG [r11_765_TrROS]
  folding stability dG unfold: < -4.18 kJ/mol

## SAGGSAGGSPSITIEKDKEKPVYKVTVYTPNGEKKVFENPEGKKVTTDSNGGEIYIDDVKINVSAGGSAGGS [r12_346_TrMRF]
  folding stability dG unfold: < -4.18 kJ/mol

## SAGGKTVEIPIPGPLTIETAKDLASKLAEEGHEDVPIKITMWHWKREPNGKPERHRHTHTYKLKVPKSAGGS [r16_44_TrROS]
  folding stability dG unfold: < -4.18 kJ/mol

## SAGGSAGGSMDDTEEESSSVSRFLENGERYTTRTKTTTRIRPDGTEEVEVEVTTTPLPPDVPLSAGGSAGGS [r12_927_JUSTAS]
  folding stability dG unfold: < -4.18 kJ/mol

## SAGGSAGGSAGGMRDIAREFAEKNGDKNKPVRIKMPGGKKHNFTPDDIPDMPFDNWTIEPSAGGSAGGSAGG [r7_863_TrROS]
  folding stability dG unfold: < -4.18 kJ/mol

## SAGGITLEELRGMPPEQLADWLVQEAQEQNKKEGNPNRPVTVEFEYGDQPLKIEITPNGKIEKIELDSAGGS [r16_431_TrROS]
  folding stability dG unfold: < -4.18 kJ/mol

## SAGGSAGGSAGGTIEELAEKLPNVDLKPVEPGPGMRRIKAQPPNGKKFTIMVDDGKIHIQSAGGSAGGSAGG [r7_26_TrROS]
  folding stability dG unfold: < -4.18 kJ/mol

## SAGKERTWRIYVPKNMPPGRPFEGELELNPNGERDVRISWPGGKTRKIKSPDDIKELAKSGYPIMIEPVSAG [r5_42_TrROS]
  folding stability dG unfold: < -4.18 kJ/mol

## SAGIVIPFEELKEFMSDEEIEDIAREFAQDNGYPPKKIEIEPHPNPGDWITIKAEPDNGNKAPIVFRLPSAG [r5_745_TrROS]
  folding stability dG unfold: < -4.18 kJ/mol

## SAGGSAGGSAGGMEDVKLLSKSYIPETNELEVTVEIPGGELVNIPLKPGVTDEDVLKLISAGGSAGGSAGGS [r10_984_JUSTAS]
  folding stability dG unfold: < -4.18 kJ/mol

## SAGGSAGGSAGPTTSSRTVKPGEVEEVKEAIEAQGVSVTVTLDPSTGTYTVGVTNPGVLGSAGGSAGGSAGG [r11_1043_JUSTAS]
  folding stability dG unfold: < -4.18 kJ/mol

## SAGGSAGGRVITLKEEELKKLIEEGKVDSVDVEKLPDGTVKAKPIIKEKEELSPKNKEKIFELKSAGGSAGG [r6_279_JUSTAS]
  folding stability dG unfold: < -4.18 kJ/mol

## SSDDKEEQKKRQKAQAKPKPKMEPVWVPIEVRDPDNGRPFEIPVRMYRTPNGKIEPLPEEELKDWAKDLFSA [r9_1056_TrROS]
  folding stability dG unfold: < -4.18 kJ/mol

## SAGGSAGGVSKVLEVRPAPGSGTYTVRTLREDPATGTTTEEVLTIPTSRPEVVDSLPPDATVELSAGGSAGG [r6_979_JUSTAS]
  folding stability dG unfold: < -4.18 kJ/mol

## SSVKIEEKPLPDGTILVTITTPPENPEEVAEKVKEEVKAPVTVTSVEEVELEEGEKPLKVVKITIEVDKASA [r9_431_JUSTAS]
  folding stability dG unfold: < -4.18 kJ/mol

## MTIEIEVTAEDLKEGKPLTAEELAKKLAEELGLEEVEVKVEVKEDGTVKITIEVKPKPPPEVVLPEELKKKS [r1_168_TrROS_Hall]
  folding stability dG unfold: < -4.18 kJ/mol

## SAGGSAGGSNGNYRIKIKIRKPNGEPKSQHTFNIPSPEQIKESLAQQPGFPPDRIEDVEVGPYSAGGSAGGS [r12_182_TrROS]
  folding stability dG unfold: < -4.18 kJ/mol

## SAGGSAGGSASSWTLLSTEKLGSKTRTTMNDPANGKTVTIETDPANGSKVVKVENKETEIESAGGSAGGSAG [r3_297_JUSTAS]
  folding stability dG unfold: < -4.18 kJ/mol

## SAGGATTPVTVPTTSEEEVEAIIEELNKEGLSDLIPKGGKPIPPPDSLRLVPLVITTTPGSGKTTVTLSAGG [r13_174_JUSTAS]
  folding stability dG unfold: < -4.18 kJ/mol

## SAGGSAGGRIRDPDGNPFKIKKVEPQPSPNGQPMIKFRYPDNGKEHTIPRDNLPPWLPDNAKPVSAGGSAGG [r6_371_TrROS]
  folding stability dG unfold: < -4.18 kJ/mol

## KTYYLKAENAPFEEIVEKAREALEADPEEGAEIVIEVPGNPELLEKLDFDEIIPYDIPERPLYIVRAKAPPS [r1_467_TrMRF]
  folding stability dG unfold: < -4.18 kJ/mol

## SAGGSAGGPPMEPIPFRVRVDEVEHDPPNGNVVITIKDGDKNPHTINIPPEMAKNMPIEPGDELSAGGSAGG [r6_915_TrROS]
  folding stability dG unfold: < -4.18 kJ/mol

## SAGGSGTTSPVLVEETVFTDGSATYTRKKVELEEVERPPVPPVEIPEEAREAGLAGDYEAAEAILASAGGSA [r2_196_JUSTAS]
  folding stability dG unfold: < -4.18 kJ/mol

## SAGGSAGGSPLYIQIERRNPKNGENQTLELPIPIDGDPSDARDIAKEIAEQLPPNDYKIEVFRSAGGSAGGS [r12_871_TrROS]
  folding stability dG unfold: < -4.18 kJ/mol

## SAGMPESEVIPLPDGSVVEVRRWPDSELRFVFPPGGPATVERHDTRTGTVETTPVSAADPEAAAAAVLASAG [r5_674_JUSTAS]
  folding stability dG unfold: < -4.18 kJ/mol

## SAGAAKEVFHETFPHPAGGPVELARNPGLDWVVLYNAGTGEPTVVPVAADETLVFPAAPGGASTFAVTSAGG [r19_118_TrMRF]
  folding stability dG unfold: < -4.18 kJ/mol

## SAMPLSELEFVEERVFPDPPVRISVYRLPSPGVWVVPVLEPGTGRPRLVELEAADGVLDEEEVRAAVLESAG [r14_948_JUSTAS]
  folding stability dG unfold: < -4.18 kJ/mol

## SAGGSAGGSMKVELIRTEEGKVVATEFFPVPLLLPGGVPALLEGSRTIKTIPVKDPEKAKELLSAGGSAGGS [r12_915_JUSTAS]
  folding stability dG unfold: < -4.18 kJ/mol

## SAGGIPLKEIKEMIENDPGETWTAQIYRMPPGPNGQMQQQTIEFPIKDPEDALDNLPPGYMVHVEPRSAGGS [r16_116_TrROS]
  folding stability dG unfold: < -4.18 kJ/mol

## SAGGSAGGSAGKYISVDELRKNGDPDEAERVVKKIMEKFPGPKIKPIEWDKDGNHMFKIKSAGGSAGGSAGG [r11_365_TrROS]
  folding stability dG unfold: < -4.18 kJ/mol

## SAGPNFQIKKVEHKGGKIEIPIRLPNGRPFTARIKVEKRPDPDGNDRPRTKIEISEDALKEYIPPDLIKSAG [r5_462_TrROS]
  folding stability dG unfold: < -4.18 kJ/mol

## SAMSPELEELLAQLKAAAEATTDVSVFATDAAGNLRSIGPVTVTGPATSLAELRPELAARPVARVELVGSAG [r14_318_JUSTAS]
  folding stability dG unfold: < -4.18 kJ/mol

## SPNVRPYNFKIRDPNKEIEVPVWQPPDGPPMVNIKFKDPGKEVEIPFPMDDPEELLEDFAPDGYKIELTWSA [r9_384_TrROS]
  folding stability dG unfold: < -4.18 kJ/mol

## SAGGSAPEPYTFKMKNPKGPPVEITITRNPNNGNYMISVEMPGPGKKHEGPMPMEDLNNLPGLEPVSAGGSA [r15_622_TrROS]
  folding stability dG unfold: < -4.18 kJ/mol

## SAGGSAGGSTIPIRDPNREIEIVKHPDNMYRIEIEPNGGKREIILPPEAMQQKPITIEELIDQSAGGSAGGS [r20_90_TrROS]
  folding stability dG unfold: < -4.18 kJ/mol

## NWKILEEEPNPDNGKRVIVIEHEPDPENGQMNMPIELFDPKKGKPRRIPVRMDSPETMIDEIKDQLPPDLIS [r1_156_TrROS]
  folding stability dG unfold: < -4.18 kJ/mol

## SAGGIREIADELGMPPGDKVTIDIERPRDGKPQTQEIEFPPDNVEDILDQMGIPPDQMKITKLKVDKDSAGG [r13_681_TrROS]
  folding stability dG unfold: < -4.18 kJ/mol

## SAGGSAGGSAGGGKVKSIELNPETDLALVEIEPEDGGTATVVLPLDLLENIPLDGTLTISAGGSAGGSAGGS [r10_255_TrMRF]
  folding stability dG unfold: < -4.18 kJ/mol

## SAGGSAGGSAGGMELEVHYTPNGYHTAEIRDPNGKPVEIYFDSPEDAPKEAQKLAKELQSAGGSAGGSAGGS [r10_1066_TrROS]
  folding stability dG unfold: < -4.18 kJ/mol

## SAGGSAMERRTFNLPADRVSPEVLLEKLKAVGLTPTEIKPVPDGVEVVVEYDPSKVEKLEKALKEGSAGGSA [r15_161_JUSTAS]
  folding stability dG unfold: < -4.18 kJ/mol

## SAGGSAGGSGMPIVVTHPSGVGLDEYIPEPYVVTMREPDSVIKVTYDPATGTVTTEVDDGAARSAGGSAGGS [r12_243_JUSTAS]
  folding stability dG unfold: < -4.18 kJ/mol

## SAGGSAGGSAGGLKIPKGYPWKLSHNNGKEREFKFDSLDDIKEELNVPIPPGRNIQIEPYSAGGSAGGSAGG [r7_223_TrROS]
  folding stability dG unfold: < -4.18 kJ/mol

## SAGGSAGGSAGGNIEIEVERNPENGYYTVEIKFNNPPIEIMVPRGMPKEQAKDWAKDLISAGGSAGGSAGGS [r10_192_TrROS]
  folding stability dG unfold: < -4.18 kJ/mol

## SAGGSAGGSAGGIKPGDKVRIMQMDKNGEMRGPVEIDNVEDGKITIKLPPPYRIMIQPYSAGGSAGGSAGGS [r10_1257_TrROS]
  folding stability dG unfold: < -4.18 kJ/mol

## SAGGSAGGSAMEAEATPIPLETEEFEIVVTILPGGTARVTTTPPEDGVPTESTVSVETVRALSAGGSAGGSA [r18_247_JUSTAS]
  folding stability dG unfold: < -4.18 kJ/mol

## SAGGSNPLLDELKDKPFRLPNIRDPGNGRDFPGVPIKIKEAEPPKDDGKISIKVEHPDGPYEMQIDSAGGSA [r2_314_TrROS]
  folding stability dG unfold: < -4.18 kJ/mol

## SAGGSAGGSAGMKKLVKITARVPDEKGNPILVEYEEEVDLKPSDSLPVPEGVLEEIEILESAGGSAGGSAGG [r11_664_JUSTAS]
  folding stability dG unfold: < -4.18 kJ/mol

## SAGGSAGGSAEPDPSSPEPYEVLEVVPRTIVSRVEQPGNPQLLRQTVDVVIIKNPSNGLLDSAGGSAGGSAG [r3_391_JUSTAS]
  folding stability dG unfold: < -4.18 kJ/mol

## SAGGSAGGSAGGPEGQWIDMDVEHNPKNNKLTIKFPDSGKPITIPANNIERVGDYIRINSAGGSAGGSAGGS [r10_942_TrROS]
  folding stability dG unfold: < -4.18 kJ/mol

## SAGGSAGGSAGTRTINMPNPHQARELIKEQPPGKPITIHMPNPEWAKELADAPGVPIQMHSAGGSAGGSAGG [r11_1071_TrROS]
  folding stability dG unfold: < -4.18 kJ/mol

## SAGGGMDTPLYRTLPPPPVVEKREVWLSGPSKEEAEKKAKEVEEEFKKEGLEVEVKIIPAEEAEKLSSAGGS [r8_210_JUSTAS]
  folding stability dG unfold: < -4.18 kJ/mol

## SAGGSAGGSASMRTITITSSTSPSGPPLPAAELAAELAKEGYTVTDPRRVPAEGKLVFTVVASAGGSAGGSA [r18_466_JUSTAS]
  folding stability dG unfold: < -4.18 kJ/mol

## SAGGSAGGGKVPKPVPGPLTILFDVAEDELPPEEIRKLFPDAKVYRFPKGLRVTVPVNGKLVPGSAGGSAGG [r6_738_TrMRF]
  folding stability dG unfold: < -4.18 kJ/mol

## SAGMDIYTETVVPLRVETDEEEIEEIIEKAKEEAEKKGYKPVEIPVETEPSPEGKTLVTIPVKLLKKAPSAG [r14_109_JUSTAS]
  folding stability dG unfold: < -4.18 kJ/mol
